T1: human FLT3 (hFLT3) expressed on cells (human, UniProt P36888 27-993)
T1 construct: whole, on cells; One molecule for all cell lines that carry human FLT3; also called RMA-hFLT3; FLT3 on REH cells
T1 sequence (looked up): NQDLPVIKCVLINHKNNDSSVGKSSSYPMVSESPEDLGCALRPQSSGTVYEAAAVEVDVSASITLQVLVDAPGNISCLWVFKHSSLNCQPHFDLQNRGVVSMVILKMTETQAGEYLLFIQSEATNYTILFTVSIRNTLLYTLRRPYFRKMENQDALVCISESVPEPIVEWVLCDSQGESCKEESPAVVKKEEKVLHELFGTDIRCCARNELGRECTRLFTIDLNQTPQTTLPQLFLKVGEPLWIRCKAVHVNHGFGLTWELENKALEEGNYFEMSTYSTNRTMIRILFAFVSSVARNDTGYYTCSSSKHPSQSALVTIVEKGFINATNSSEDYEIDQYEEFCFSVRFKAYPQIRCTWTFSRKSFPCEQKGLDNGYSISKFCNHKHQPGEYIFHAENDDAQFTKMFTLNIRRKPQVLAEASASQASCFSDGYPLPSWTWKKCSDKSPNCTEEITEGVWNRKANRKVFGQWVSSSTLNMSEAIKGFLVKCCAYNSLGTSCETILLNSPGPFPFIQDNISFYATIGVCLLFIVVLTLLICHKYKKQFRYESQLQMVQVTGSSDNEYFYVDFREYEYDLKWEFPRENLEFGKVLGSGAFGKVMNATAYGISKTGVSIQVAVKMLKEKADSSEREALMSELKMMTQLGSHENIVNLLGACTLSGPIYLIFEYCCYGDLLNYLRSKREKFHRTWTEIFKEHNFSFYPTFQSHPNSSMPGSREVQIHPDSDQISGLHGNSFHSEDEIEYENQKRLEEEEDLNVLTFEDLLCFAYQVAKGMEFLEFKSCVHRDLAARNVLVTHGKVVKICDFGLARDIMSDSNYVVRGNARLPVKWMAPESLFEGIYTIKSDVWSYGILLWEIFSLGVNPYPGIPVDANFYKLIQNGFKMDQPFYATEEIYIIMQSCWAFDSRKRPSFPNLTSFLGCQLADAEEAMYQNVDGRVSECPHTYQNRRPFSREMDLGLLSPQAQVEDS

T2: cynomolgus monkey FLT3 (cFLT3) expressed on RMA cells (cynomolgus monkey, UniProt A0A2K5VQ48 27-993)
T2 construct: whole, on cells; also called RMA-cFLT3; cynomolgus FLT3
T2 sequence: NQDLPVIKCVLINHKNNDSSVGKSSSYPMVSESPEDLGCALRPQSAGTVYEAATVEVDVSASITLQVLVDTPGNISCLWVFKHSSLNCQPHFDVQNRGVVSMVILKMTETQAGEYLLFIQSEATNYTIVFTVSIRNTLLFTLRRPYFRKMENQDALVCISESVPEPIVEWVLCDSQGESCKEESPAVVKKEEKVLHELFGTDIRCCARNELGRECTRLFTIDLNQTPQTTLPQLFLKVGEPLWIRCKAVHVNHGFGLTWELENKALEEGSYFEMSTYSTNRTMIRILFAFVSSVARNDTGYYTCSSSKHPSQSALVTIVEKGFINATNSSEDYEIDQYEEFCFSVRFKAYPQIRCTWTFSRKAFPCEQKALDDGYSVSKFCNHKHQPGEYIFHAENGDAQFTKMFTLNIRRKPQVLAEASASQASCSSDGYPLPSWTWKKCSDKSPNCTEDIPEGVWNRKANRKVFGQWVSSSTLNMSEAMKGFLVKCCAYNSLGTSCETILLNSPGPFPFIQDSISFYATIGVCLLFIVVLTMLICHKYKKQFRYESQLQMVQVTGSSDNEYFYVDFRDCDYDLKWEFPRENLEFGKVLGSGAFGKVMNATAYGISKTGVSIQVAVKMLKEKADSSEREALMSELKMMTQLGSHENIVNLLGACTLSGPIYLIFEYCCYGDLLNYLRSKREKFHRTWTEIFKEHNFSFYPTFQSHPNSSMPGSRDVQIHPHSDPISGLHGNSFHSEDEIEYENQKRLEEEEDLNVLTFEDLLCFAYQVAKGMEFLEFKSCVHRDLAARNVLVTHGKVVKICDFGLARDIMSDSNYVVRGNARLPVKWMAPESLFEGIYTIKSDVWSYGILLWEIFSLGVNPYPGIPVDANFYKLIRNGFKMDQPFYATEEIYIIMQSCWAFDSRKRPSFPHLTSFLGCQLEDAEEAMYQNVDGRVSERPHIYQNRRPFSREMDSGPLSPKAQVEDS

T3: FLT3-T227M expressed on MOLM-13 cells (human, UniProt P36888 27-993)
T3 construct: whole, on cells; also called hFLT3-T227M; FLT3 with T227M mutation
T3 sequence (looked up): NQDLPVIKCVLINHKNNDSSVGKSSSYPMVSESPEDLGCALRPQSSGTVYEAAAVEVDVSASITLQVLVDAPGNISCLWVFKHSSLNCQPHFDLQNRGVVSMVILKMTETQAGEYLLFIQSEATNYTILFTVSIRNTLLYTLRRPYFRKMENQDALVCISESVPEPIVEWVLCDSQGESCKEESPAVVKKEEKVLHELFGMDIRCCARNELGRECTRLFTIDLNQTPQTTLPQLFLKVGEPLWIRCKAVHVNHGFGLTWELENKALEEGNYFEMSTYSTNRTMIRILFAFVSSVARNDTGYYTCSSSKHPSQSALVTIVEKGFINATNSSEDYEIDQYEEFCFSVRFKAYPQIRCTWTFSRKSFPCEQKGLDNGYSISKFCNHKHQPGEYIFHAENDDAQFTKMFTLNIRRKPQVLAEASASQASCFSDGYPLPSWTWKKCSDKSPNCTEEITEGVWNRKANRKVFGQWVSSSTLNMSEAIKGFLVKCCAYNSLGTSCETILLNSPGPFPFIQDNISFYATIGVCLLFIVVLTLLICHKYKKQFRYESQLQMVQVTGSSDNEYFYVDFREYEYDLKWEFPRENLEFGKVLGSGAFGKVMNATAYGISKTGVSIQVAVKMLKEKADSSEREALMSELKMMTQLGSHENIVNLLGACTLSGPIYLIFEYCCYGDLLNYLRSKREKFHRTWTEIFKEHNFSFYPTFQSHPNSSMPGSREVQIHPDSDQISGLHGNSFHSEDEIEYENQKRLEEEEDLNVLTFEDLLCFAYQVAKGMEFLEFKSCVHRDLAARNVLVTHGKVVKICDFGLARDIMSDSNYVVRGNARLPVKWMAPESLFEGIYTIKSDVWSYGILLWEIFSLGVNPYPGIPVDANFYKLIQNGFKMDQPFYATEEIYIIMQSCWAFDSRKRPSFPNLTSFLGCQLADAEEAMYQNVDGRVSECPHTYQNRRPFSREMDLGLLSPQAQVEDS

T4: FLT3-ITD expressed on MV4-11 cells (human, UniProt P36888 27-543)
T4 construct: whole, on cells; the ITD itself is not described; also called hFLT3-ITD; FLT3 with the ITD mutation
T4 sequence (looked up): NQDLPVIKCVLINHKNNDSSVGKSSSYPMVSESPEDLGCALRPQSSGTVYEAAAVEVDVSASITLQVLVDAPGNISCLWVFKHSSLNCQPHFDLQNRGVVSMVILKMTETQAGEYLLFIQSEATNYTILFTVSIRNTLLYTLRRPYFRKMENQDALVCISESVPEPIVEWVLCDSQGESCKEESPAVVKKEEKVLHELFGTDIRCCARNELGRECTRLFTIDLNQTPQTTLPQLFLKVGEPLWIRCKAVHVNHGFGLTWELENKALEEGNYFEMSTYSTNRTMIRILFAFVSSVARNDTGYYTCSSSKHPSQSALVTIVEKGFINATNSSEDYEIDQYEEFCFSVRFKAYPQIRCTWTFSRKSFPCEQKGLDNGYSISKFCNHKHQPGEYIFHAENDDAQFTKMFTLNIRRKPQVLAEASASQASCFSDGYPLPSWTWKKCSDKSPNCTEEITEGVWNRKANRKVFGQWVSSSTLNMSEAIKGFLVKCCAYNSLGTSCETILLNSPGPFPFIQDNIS


Key:
[1] = target: T1, human FLT3 (hFLT3) expressed on cells; test: flow cytometry on REH cells, anti-human IgG secondary antibody, fold over background (FOB)
Text: (§1) Isogenic cell lines ectopically expressing human and cynomolgus monkey FLT3 were used to assess cross-reactivity between human and cynomolgus monkey FLT3. […] cancer cell line RMA expressing hFLT3 or cFLT3 was used to assess tumor antigen binding of FLT3-targeting TriNKET and parental mAb. The human AML cell lines MOLM-13 and MV4-11 and the human ALL cell line REH were used to assess binding ability of the TriNKET or parental mAb. In particular, MOLM-13 cells and MV4-11 cells, which expressed FLT3-T227M and FLT3-ITD, respectively, were used to assess the ability of the FLT3-targeting TriNKET and parental mAb to bind mutant FLT3.
(§2) The cells were then incubated with a fluorophore conjugated anti-human IgG secondary antibody and were analyzed by flow cytometry. The mean fluorescence intensity (MFI) values were normalized to secondary antibody only controls to obtain fold over background (FOB) values.

[2] = target: T1, human FLT3 (hFLT3) expressed on cells; test: flow cytometry on RMA-hFLT3 cells, anti-human IgG secondary antibody, fold over background (FOB)
Text: as §1, §2

[3] = target: T2, cynomolgus monkey FLT3 (cFLT3) …; test: flow cytometry on RMA-cFLT3 cells, anti-human IgG secondary antibody, fold over background (FOB)
Text: as §1, §2

[4] = target: T3, FLT3-T227M expressed on MOLM-13 cells; test: flow cytometry on MOLM-13 cells (FLT3-T227M), anti-human IgG secondary antibody, gMFI
Text: as §1, §2

[5] = target: T4, FLT3-ITD expressed on MV4-11 cells; test: flow cytometry on MV4-11 cells (FLT3-ITD), anti-human IgG secondary antibody, gMFI
Text: as §1, §2

| EC50 (read off the curve) [1] | EC50 (read off the curve) [2] | EC50 (read off the curve) [3] | EC50 (read off the curve) [4] | EC50 (read off the curve) [5] | Binder |
| --- | --- | --- | --- | --- | --- |
| ~1 nM | ~0.5 nM | ~0.6 nM | ~2 nM |  | GB102 monoclonal antibody in the human IgG1 format (antibody, V domains shown, also called parental mAb) VH: QVQLVQSGAEVKKPGASVKVSCKASGYTFTRYVMHWVRQAPGQRLEWMGFINPYNDDTKYNEKFKGRVTITRDTSASTAYMELSSLRSEDTAVYYCARWRQLGSLDSWGQGTTVTVSS VL: DIVMTQSPDSLAVSLGERATINCRASESVDTYGSSFVHWYQQKPGQPPKLLIYLASNLESGVPDRFSGSGSGTDFTLTISSLQAEDVAVYYCQQNNEEPWTFGGGTKVEIK |
| ~5 nM | ~1 nM | ~1 nM |  | ~1 nM | F3′-GB102 (bispecific antibody, human IgG1, kappa, also called FLT3-targeting TriNKET) DIVMTQSPDSLAVSLGERATINCRASESVDTYGSSFVHWYQQKPGQPPKLLIYLASNLESGVPDRFSGSGSGTDFTLTISSLQAEDVAVYYCQQNNEEPWTFGCGTKVEIKGGGGSGGGGSGGGGSGGGGSQVQLVQSGAEVKKPGASVKVSCKASGYTFTRYVMHWVRQAPGQCLEWMGFINPYNDDTKYNEKFKGRVTITRDTSASTAYMELSSLRSEDTAVYYCARWRQLGSLDSWGQGTTVTVSSGSDKTHTCPPCPAPELLGGPSVFLFPPKPKDTLMISRTPEVTCVVVDVSHEDPEVKFNWYVDGVEVHNAKTKPREEQYNSTYRVVSVLTVLHQDWLNGKEYKCKVSNKALPAPIEKTISKAKGQPREPRVYTLPPCRDELTKNQVSLTCLVKGFYPSDIAVEWESNGQPENNYKTTPPVLVSDGSFTLYSKLTVDKSRWQQGNVFSCSVMHEALHNHYTQKSLSLSPG heavy: EVQLVESGGGLVKPGGSLRLSCAASGFTFSSYSMNWVRQAPGKGLEWVSSISSSSSYIYYADSVKGRFTISRDNAKNSLYLQMNSLRAEDTAVYYCARGAPIGAAAGWFDPWGQGTLVTVSSASTKGPSVFPLAPSSKSTSGGTAALGCLVKDYFPEPVTVSWNSGALTSGVHTFPAVLQSSGLYSLSSVVTVPSSSLGTQTYICNVNHKPSNTKVDKKVEPKSCDKTHTCPPCPAPELLGGPSVFLFPPKPKDTLMISRTPEVTCVVVDVSHEDPEVKFNWYVDGVEVHNAKTKPREEQYNSTYRVVSVLTVLHQDWLNGKEYKCKVSNKALPAPIEKTISKAKGQPREPQVCTLPPSRDELTENQVSLTCLVKGFYPSDIAVEWESNGQPENNYKTTPPVLDSDGSFFLYSWLTVDKSRWQQGNVFSCSVMHEALHNHYTQKSLSLSPG light: DIQMTQSPSSVSASVGDRVTITCRASQGISSWLAWYQQKPGKAPKLLIYAASSLQSGVPSRFSGSGSGTDFTLTISSLQPEDFATYYCQQGVSFPRTFGGGTKVEIKRTVAAPSVFIFPPSDEQLKSGTASVVCLLNNFYPREAKVQWKVDNALQSGNSQESVTEQDSKDSTYSLSSTLTLSKADYEKHKVYACEVTHQGLSSPVTKSFNRGEC |
